According to patent publication US20240002479A1 (REGENTS OF THE UNIVERSITY OF MICHIGAN, published 2024):

T1: DENV4 NS1 (Dengue virus 4, UniProt P09866 775-1126)
T1 sequence: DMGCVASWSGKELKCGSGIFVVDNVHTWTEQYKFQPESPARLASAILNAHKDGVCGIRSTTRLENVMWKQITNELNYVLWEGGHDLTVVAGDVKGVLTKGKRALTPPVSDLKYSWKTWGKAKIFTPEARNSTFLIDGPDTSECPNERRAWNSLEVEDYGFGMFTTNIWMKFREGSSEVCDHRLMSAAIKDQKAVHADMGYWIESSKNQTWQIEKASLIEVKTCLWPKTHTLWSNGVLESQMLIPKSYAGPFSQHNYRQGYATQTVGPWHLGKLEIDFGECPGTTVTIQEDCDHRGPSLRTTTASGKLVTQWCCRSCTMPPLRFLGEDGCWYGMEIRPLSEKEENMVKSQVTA

T2: JEV NS1 (Japanese encephalitis virus NS1) (Japanese encephalitis virus, UniProt P0DOH7 795-1146)
T2 sequence: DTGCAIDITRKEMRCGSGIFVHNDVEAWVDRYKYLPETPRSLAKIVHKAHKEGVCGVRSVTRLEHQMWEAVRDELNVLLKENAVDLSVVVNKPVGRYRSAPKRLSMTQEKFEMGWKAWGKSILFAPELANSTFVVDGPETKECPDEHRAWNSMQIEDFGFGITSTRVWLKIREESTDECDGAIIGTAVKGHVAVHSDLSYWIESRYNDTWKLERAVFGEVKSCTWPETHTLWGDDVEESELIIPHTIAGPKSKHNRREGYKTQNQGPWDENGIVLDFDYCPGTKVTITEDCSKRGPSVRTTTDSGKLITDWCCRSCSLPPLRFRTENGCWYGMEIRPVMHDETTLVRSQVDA

T3: SLEV NS1 (Saint Louis encephalitis virus NS1) (Saint Louis encephalitis virus, UniProt P09732 790-1141)
T3 sequence: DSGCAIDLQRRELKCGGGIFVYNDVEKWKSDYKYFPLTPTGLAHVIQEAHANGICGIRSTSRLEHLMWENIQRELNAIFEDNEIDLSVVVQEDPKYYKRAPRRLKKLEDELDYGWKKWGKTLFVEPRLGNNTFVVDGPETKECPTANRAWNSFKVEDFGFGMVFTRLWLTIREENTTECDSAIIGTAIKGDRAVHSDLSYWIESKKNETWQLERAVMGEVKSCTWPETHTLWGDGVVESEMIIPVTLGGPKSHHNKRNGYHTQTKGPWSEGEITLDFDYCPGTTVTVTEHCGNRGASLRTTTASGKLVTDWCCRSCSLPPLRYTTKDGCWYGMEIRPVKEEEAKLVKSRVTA

T4: USUV NS1 (Usutu virus NS1) (Usutu virus, UniProt Q5WPU5 794-1145)
T4 chain: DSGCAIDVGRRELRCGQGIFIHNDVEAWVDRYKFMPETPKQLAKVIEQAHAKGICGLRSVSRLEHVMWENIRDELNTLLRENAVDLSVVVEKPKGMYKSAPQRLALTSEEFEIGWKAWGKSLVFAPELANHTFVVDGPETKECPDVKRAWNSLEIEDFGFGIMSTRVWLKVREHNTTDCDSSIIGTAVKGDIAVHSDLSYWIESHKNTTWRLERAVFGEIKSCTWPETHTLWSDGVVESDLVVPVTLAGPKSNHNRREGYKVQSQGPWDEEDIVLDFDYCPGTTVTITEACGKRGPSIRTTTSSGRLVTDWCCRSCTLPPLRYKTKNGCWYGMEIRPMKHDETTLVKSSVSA

T5: DENV1 NS1 (Dengue virus 1, UniProt P17763 776-1127)
T5 construct: also called dengue virus serotype 1 NS1
T5 chain: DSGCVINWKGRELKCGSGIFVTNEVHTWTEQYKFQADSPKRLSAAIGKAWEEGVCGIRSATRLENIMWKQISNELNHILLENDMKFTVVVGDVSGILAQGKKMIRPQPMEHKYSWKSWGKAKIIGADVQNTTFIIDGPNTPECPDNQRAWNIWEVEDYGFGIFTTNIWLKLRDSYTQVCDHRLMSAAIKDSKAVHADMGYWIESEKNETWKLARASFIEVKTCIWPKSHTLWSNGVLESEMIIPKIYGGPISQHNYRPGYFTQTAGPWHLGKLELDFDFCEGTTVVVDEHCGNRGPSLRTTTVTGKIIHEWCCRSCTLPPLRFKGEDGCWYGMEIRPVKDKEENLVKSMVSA

T6: recombinant NS1 wing domain (residues 38-151) (Dengue virus 2, UniProt P07564 813-926)
T6 sequence: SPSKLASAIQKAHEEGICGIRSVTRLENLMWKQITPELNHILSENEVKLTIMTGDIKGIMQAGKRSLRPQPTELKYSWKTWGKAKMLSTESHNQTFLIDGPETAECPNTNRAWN

T7: DENV3 NS1 (Dengue virus 3, UniProt Q6YMS4 774-1125)
T7 sequence: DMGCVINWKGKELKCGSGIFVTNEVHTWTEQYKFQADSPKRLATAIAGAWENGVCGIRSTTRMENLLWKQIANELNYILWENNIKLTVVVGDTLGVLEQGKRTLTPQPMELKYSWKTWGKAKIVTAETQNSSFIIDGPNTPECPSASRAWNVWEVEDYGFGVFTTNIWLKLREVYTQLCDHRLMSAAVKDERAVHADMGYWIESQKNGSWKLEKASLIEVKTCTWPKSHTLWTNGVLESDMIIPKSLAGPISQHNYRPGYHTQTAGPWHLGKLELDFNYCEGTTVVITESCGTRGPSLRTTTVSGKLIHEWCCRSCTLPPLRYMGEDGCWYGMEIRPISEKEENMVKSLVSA

T8: WSLV NS1 (Wesselsbron virus NS1) (Wesselsbron virus, UniProt C5H431 771-1123)
T8 sequence: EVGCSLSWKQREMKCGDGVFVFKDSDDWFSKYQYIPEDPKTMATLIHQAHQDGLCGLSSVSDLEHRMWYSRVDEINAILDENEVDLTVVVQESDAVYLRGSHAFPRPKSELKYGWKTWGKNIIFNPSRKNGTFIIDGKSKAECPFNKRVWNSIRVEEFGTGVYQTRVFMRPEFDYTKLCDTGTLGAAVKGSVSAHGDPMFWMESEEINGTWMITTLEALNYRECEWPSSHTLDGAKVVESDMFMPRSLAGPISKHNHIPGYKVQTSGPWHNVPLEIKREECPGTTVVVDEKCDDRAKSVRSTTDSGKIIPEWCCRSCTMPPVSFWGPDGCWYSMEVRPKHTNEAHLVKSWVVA

B1: anti-DENV NS1 IgG2b mouse monoclonal antibody (mAb) 2B7 (antibody, V domains shown)
VH: EVQLQQSGPELVKPGASVKMSCKASGCTLTNCFMHWMKQKPGQDLEWIGYINPYNDMTKYSENFKGKATLTSDKSSSTAFMELSSLTSEDSAVYYCARGYLLRTGCFDYWGQGTTLTVSS
VL: NIVLTQSPASLAVSLGQRATISCRASESVDSYGYSFMHWYQQKPGQPPKVLIYLASNLESGVPARFSGSGSRTDFTLTIDPVEADDAATYYCQQNNENPLTFGAGTKLELKR
B2: 2B7 Fab (Fab, V domains shown)
VH: B1 VH
VL: NIVLTQSPASLAVSLGQRATISCRASESVDSYGYSFMHWYQQKPGQPPKVLIYLASNLESGVPARFSGSGSRTDFTLTIDPVEADDAATYYCQQNNENPLTFGAGTKLELK

Columns and labels:
[1] = target: T1, DENV4 NS1; experiment: ELISA, 2B7 titrated on DENV4 NS1, OD450nm
[2] = target: T2, JEV NS1 (Japanese encephalitis virus …); experiment: ELISA, 2B7 titrated on JEV NS1, OD450nm
[3] = target: T3, SLEV NS1 (Saint Louis encephalitis …); experiment: ELISA, 2B7 titrated on SLEV NS1, OD450nm
[4] = target: T4, USUV NS1 (Usutu virus NS1); experiment: ELISA, 2B7 titrated on USUV NS1, OD450nm
[5] = target: T5, DENV1 NS1; experiment: ELISA, 2B7 titrated on DENV1 NS1, OD450nm
[6] = target: T6, recombinant NS1 wing domain (residues …); experiment: direct ELISA on plates coated with recombinant NS1 domains, OD 405 nm
[7] = target: T7, DENV3 NS1; experiment: ELISA, 2B7 titrated on DENV3 NS1, OD450nm
[8] = target: T8, WSLV NS1 (Wesselsbron virus NS1); experiment: ELISA, 2B7 titrated on WSLV NS1, OD450nm
[9] = target: T5, DENV1 NS1; experiment: crystal structure 3.3 Å
[10] = target: T6, recombinant NS1 wing domain (residues …); experiment: BLI, domains on anti-His tips

Row | Binder | binding result [1] | binding result [2] | binding result [3] | binding result [4] | binding result [5] | binding result [6] | binding result [7] | binding result [8] | binding result [9] | binding result [10]
1 | B1 | binds | binds | binds | binds | binds | no binding | binds | binds |  | 
2 | B2 |  |  |  |  |  |  |  |  | binds | no binding
